Literature values, collected in publication PMC12384831.
“And” between values parts separate entries of the source, which are not always exact repeats. Identical values can stand only once.

Target: VISTA (Homo sapiens) (UniProt Q9H7M9)
UniProt Q9H7M9, sequence (Q9H7M9 33-194): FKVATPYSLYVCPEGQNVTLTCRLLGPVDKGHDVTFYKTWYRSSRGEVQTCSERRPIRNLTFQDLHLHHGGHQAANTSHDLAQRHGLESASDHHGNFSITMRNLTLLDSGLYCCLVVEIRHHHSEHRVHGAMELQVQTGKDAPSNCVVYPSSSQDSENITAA

Kd: 20 nM and 80 nM
Substance: IGSF11 (from UniProt Q5DX21)
